# Assay results: the RNAGym collection of RNA variant scans (doi:10.7554/elife.80360)
# B1: HDV Ribozyme (parent)
# chain: GGCCGGCAUGGUCCCAGCCUCCUCGCUGGCGCCGGCUGGGCAACAUUCCGAGGGGACCGUCCCCUCGGUAAUGGCGAAUGGGACCCA
# Variants of: B1
# Assay: self-cleavage, relative activity (ratio to wild type); higher = more cleavage; co-transcriptional
row,Variant,self-cleavage
1,GGCCGGCAUGGUCCCAGCCUCCUCGCUGGCGCCGGCUGGGCAAUAUUCCGAGGGGACCGUCCCCUCGGUAAUGGCGAAUCGGACCCA [C44U G80C],0.242
2,GGCCGGCAUGGUCCCAGCCUCCUCGCUGGCGCCGGCUGGGCAACCUUCCGAGGGGACCGUCCCCUCGGUAAUGGCGAUUGGGACCCA [A45C A78U],0.229
3,GGCCGGCAUGGUCCCAGCCUCCUCGCUGGCGCCGGCUGGGCAACCUUCCGAGGGGACCGUCCCCUCGGUAAUGGCGAGUGGGACCCA [A45C A78G],0.178
4,GGCCGGCAUGGUCCCAGCCUCCUCGCUGGCGCCGGCUGGGCAACCUUCCGAGGGGACCGUCCCCUCGGUAAUGGCGAAUGGGACCCU [A45C A87U],0.531
5,GGCCGGCAUGGUCCCAGCCUCCUCGCUGGCGCCGGCUGGGCAAUAUUCCGAGGGGACCGUCCCCUUGGUAAUGGCGAAUGGGACCCA [C44U C66U],0.817
6,GGCCGGCAUGGUCCCAGCCUCCUCGCUGGCGCCGGCUGGGCAAUAUUCCGAGGGGACCGUCCCCUCGGGAAUGGCGAAUGGGACCCA [C44U U69G],0.957
7,GGCCGGCAUGGUCCCAGCCUCCUCGCUGGCGCCGGCUGGGCAAUAUUCCGAGGGGACCGUCCCCACGGUAAUGGCGAAUGGGACCCA [C44U U65A],0.846
8,GGCCGGCAUGGUCCCAGCCUCCUCGCUGGCGCCGGCUGGGCAAUAUUCCGAGGGGACCGUCCCCCCGGUAAUGGCGAAUGGGACCCA [C44U U65C],0.61
9,GGCCGGCAUGGUCCCAGCCUCCUCGCUGGCGCCGGCUGGGCAACCUUCUGAGGGGACCGUCCCCUCGGUAAUGGCGAAUGGGACCCA [A45C C49U],0.831
10,GGCCGGCAUGGUCCCAGCCUCCUCGCUGGCGCCGGCUGGGCAACCUUCGGAGGGGACCGUCCCCUCGGUAAUGGCGAAUGGGACCCA [A45C C49G],0.492
11,GGCCGGCAUGGUCCCAGCCUCCUCGCUGGCGCCGGCUGGGCAAUAUUCCGAGGGAACCGUCCCCUCGGUAAUGGCGAAUGGGACCCA [C44U G55A],0.831
12,GGCCGGCAUGGUCCCAGCCUCCUCGCUGGCGCCGGCUGGGCAAUAUUCCGAGGGCACCGUCCCCUCGGUAAUGGCGAAUGGGACCCA [C44U G55C],0.882
13,GGCCGGCAUGGUCCCAGCCUCCUCGCUGGCGCCGGCUGGGCAAUAUUCCGAGGGGACCGUCCCCUCGGUAAUUGCGAAUGGGACCCA [C44U G73U],0.172
14,GGCCGGCAUGGUCCCAGCCUCCUCGCUGGCGCCGGCUGGGCAAUAUUCCGAGGGGACCGUCCCCUCGGUAAUCGCGAAUGGGACCCA [C44U G73C],0.47
15,GGCCGGCAUGGUCCCAGCCUCCUCGCUGGCGCCGGCUGGGCAAUAUUCCGAGGGGACCGUCCCCUCGGUAAUGGCUAAUGGGACCCA [C44U G76U],0.847
16,GGCCGGCAUGGUCCCAGCCUCCUCGCUGGCGCCGGCUGGGCAAUAUUCCGAGGGGACCGUCCCCUCGGUAAUGGCGAAUGCGACCCA [C44U G81C],0.0923
17,GGCCGGCAUGGUCCCAGCCUCCUCGCUGGCGCCGGCUGGGCAAUAUUCCGAGGGGACCGUCCCCUCGGUAAUGGCGAAUGUGACCCA [C44U G81U],0.212
18,GGCCGGCAUGGUCCCAGCCUCCUCGCUGGCGCCGGCUGGGCAACCUUCCGCGGGGACCGUCCCCUCGGUAAUGGCGAAUGGGACCCA [A45C A51C],0.875
19,GGCCGGCAUGGUCCCAGCCUCCUCGCUGGCGCCGGCUGGGCAAUAUUCCGAGGGGACCGUCCCUUCGGUAAUGGCGAAUGGGACCCA [C44U C64U],0.876
20,GGCCGGCAUGGUCCCAGCCUCCUCGCUGGCGCCGGCUGGGCAAUAUUCCGAGGGGACCGUCCCAUCGGUAAUGGCGAAUGGGACCCA [C44U C64A],0.408
21,GGCCGGCAUGGUCCCAGCCUCCUCGCUGGCGCCGGCUGGGCAAUAUUCCGAGGGGACCGUCCCCUCGGUAAUGGCGAAAGGGACCCA [C44U U79A],0.688
22,GGCCGGCAUGGUCCCAGCCUCCUCGCUGGCGCCGGCUGGGCAAUAUUCCGAGGGGACCGUCCCCUCGGUAAUGGCGAACGGGACCCA [C44U U79C],0.269

row,Variant,self-cleavage
1,GGCCGGCAUGGUCCCAGCCUCCUCGCUGGCGCCGGCUGGGCAAUAUUCCGAGGGGACCCUCCCCUCGGUAAUGGCGAAUGGGACCCA [C44U G59C],0.997
2,GGCCGGCAUGGUCCCAGCCUCCUCGCUGGCGCCGGCUGGGCAAUAUUCCGAGGGGACCGUCCCCUCGGUAAUGGCGAAUGGGAGCCA [C44U C84G],0.404
3,GGCCGGCAUGGUCCCAGCCUCCUCGCUGGCGCCGGCUGGGCAAUAUUCCGAGGGGACCGUCCCCUCGGUAAUGCCGAAUGGGACCCA [C44U G74C],0.233
4,GGCCGGCAUGGUCCCAGCCUCCUCGCUGGCGCCGGCUGGGCAAUAUUCCGAGGGGACCGUCCCCUCGGUAAUGACGAAUGGGACCCA [C44U G74A],0.427
5,GGCCGGCAUGGUCCCAGCCUCCUCGCUGGCGCCGGCUGGGCAAUAUUCCGAGGGGACCGUCCCCUCGGUAAUGUCGAAUGGGACCCA [C44U G74U],0.67
6,GGCCGGCAUGGUCCCAGCCUCCUCGCUGGCGCCGGCUGGGCAACCUUCCGAGGGGACCGUCCCCUCGGUAAUGGCGCAUGGGACCCA [A45C A77C],0.277
7,GGCCGGCAUGGUCCCAGCCUCCUCGCUGGCGCCGGCUGGGCAAUAUUCCGAGGGGACCGUCACCUCGGUAAUGGCGAAUGGGACCCA [C44U C62A],0.665
8,GGCCGGCAUGGUCCCAGCCUCCUCGCUGGCGCCGGCUGGGCAAUAUUCCGAGGGGACCGUCCGCUCGGUAAUGGCGAAUGGGACCCA [C44U C63G],0.594
9,GGCCGGCAUGGUCCCAGCCUCCUCGCUGGCGCCGGCUGGGCAAUAUUCCGAGGGGACCGUCCACUCGGUAAUGGCGAAUGGGACCCA [C44U C63A],0.819
10,GGCCGGCAUGGUCCCAGCCUCCUCGCUGGCGCCGGCUGGGCAAUACUCCGAGGGGACCGUCCCCUCGGUAAUGGCGAAUGGGACCCA [C44U U46C],0.571
11,GGCCGGCAUGGUCCCAGCCUCCUCGCUGGCGCCGGCUGGGCAAUAGUCCGAGGGGACCGUCCCCUCGGUAAUGGCGAAUGGGACCCA [C44U U46G],0.712
12,GGCCGGCAUGGUCCCAGCCUCCUCGCUGGCGCCGGCUGGGCAACCUUCCGAGGGGAACGUCCCCUCGGUAAUGGCGAAUGGGACCCA [A45C C57A],0.504
13,GGCCGGCAUGGUCCCAGCCUCCUCGCUGGCGCCGGCUGGGCAACCUUCCGAGGGGAUCGUCCCCUCGGUAAUGGCGAAUGGGACCCA [A45C C57U],0.73
14,GGCCGGCAUGGUCCCAGCCUCCUCGCUGGCGCCGGCUGGGCAAUAUUCCGAGGGGACCGUCCCCUCGUUAAUGGCGAAUGGGACCCA [C44U G68U],0.607
15,GGCCGGCAUGGUCCCAGCCUCCUCGCUGGCGCCGGCUGGGCAAUAUUCCGAGGGGACCGUCCCCUCGCUAAUGGCGAAUGGGACCCA [C44U G68C],0.529
16,GGCCGGCAUGGUCCCAGCCUCCUCGCUGGCGCCGGCUGGGCAAUAUUCCGAGGGGACCGUCCCCUCGAUAAUGGCGAAUGGGACCCA [C44U G68A],0.681
17,GGCCGGCAUGGUCCCAGCCUCCUCGCUGGCGCCGGCUGGGCAACCUUCCGAGGGGACCGUCCCCUCGGUAUUGGCGAAUGGGACCCA [A45C A71U],1.09
18,GGCCGGCAUGGUCCCAGCCUCCUCGCUGGCGCCGGCUGGGCAACCUUCCGAGGGGACCGUCCCCUCGGUAGUGGCGAAUGGGACCCA [A45C A71G],1.11
19,GGCCGGCAUGGUCCCAGCCUCCUCGCUGGCGCCGGCUGGGCAACCUUCCGAGGGGACGGUCCCCUCGGUAAUGGCGAAUGGGACCCA [A45C C58G],0.724
20,GGCCGGCAUGGUCCCAGCCUCCUCGCUGGCGCCGGCUGGGCAACCUUCCGAGGGGACCGUCCCAUCGGUAAUGGCGAAUGGGACCCA [A45C C64A],0.426
21,GGCCGGCAUGGUCCCAGCCUCCUCGCUGGCGCCGGCUGGGCAACCUUCCGAGGGGACCGUCCCUUCGGUAAUGGCGAAUGGGACCCA [A45C C64U],0.73
22,GGCCGGCAUGGUCCCAGCCUCCUCGCUGGCGCCGGCUGGGCAAUAUUCCUAGGGGACCGUCCCCUCGGUAAUGGCGAAUGGGACCCA [C44U G50U],0.772

row,Variant,self-cleavage
1,GGCCGGCAUGGUCCCAGCCUCCUCGCUGGCGCCGGCUGGGCAAUAUUCCAAGGGGACCGUCCCCUCGGUAAUGGCGAAUGGGACCCA [C44U G50A],0.855
2,GGCCGGCAUGGUCCCAGCCUCCUCGCUGGCGCCGGCUGGGCAAUAUUCCCAGGGGACCGUCCCCUCGGUAAUGGCGAAUGGGACCCA [C44U G50C],0.437
3,GGCCGGCAUGGUCCCAGCCUCCUCGCUGGCGCCGGCUGGGCAACCUUCCGAGGGGACCGUCCCCUUGGUAAUGGCGAAUGGGACCCA [A45C C66U],0.8
4,GGCCGGCAUGGUCCCAGCCUCCUCGCUGGCGCCGGCUGGGCAACCUUCCGAGGGGACCGUCCCCUAGGUAAUGGCGAAUGGGACCCA [A45C C66A],0.684
5,GGCCGGCAUGGUCCCAGCCUCCUCGCUGGCGCCGGCUGGGCAAUAUUCCGAAGGGACCGUCCCCUCGGUAAUGGCGAAUGGGACCCA [C44U G52A],0.831
6,GGCCGGCAUGGUCCCAGCCUCCUCGCUGGCGCCGGCUGGGCAAUAUUCCGACGGGACCGUCCCCUCGGUAAUGGCGAAUGGGACCCA [C44U G52C],0.806
7,GGCCGGCAUGGUCCCAGCCUCCUCGCUGGCGCCGGCUGGGCAAUAUUCCGAGGGGACCGUCCCCUCGGUAAUGGCGAAUGGCACCCA [C44U G82C],0.0723
8,GGCCGGCAUGGUCCCAGCCUCCUCGCUGGCGCCGGCUGGGCAAUAUUCCGAGGGGACCGUCCCCUCGGUAAUGGCGAAUGGGACCUA [C44U C86U],0.886
9,GGCCGGCAUGGUCCCAGCCUCCUCGCUGGCGCCGGCUGGGCAAUAUUCCGAGGGGACCGUCCCCUCGGUAAUGGCGAAUGGGACCAA [C44U C86A],0.716
10,GGCCGGCAUGGUCCCAGCCUCCUCGCUGGCGCCGGCUGGGCAACCUUCCGAGGGGACCGUCCCCUCGGUAAUGGCGAAUGGGAGCCA [A45C C84G],0.297
11,GGCCGGCAUGGUCCCAGCCUCCUCGCUGGCGCCGGCUGGGCAACCUUCCGAGGGGACCGUCCCCUCGGUAAUGGCGAAUGGGAACCA [A45C C84A],0.655
12,GGCCGGCAUGGUCCCAGCCUCCUCGCUGGCGCCGGCUGGGCAAUAUUCCGAGGGGACCGUCCCCUCGGUAAGGGCGAAUGGGACCCA [C44U U72G],0.665
13,GGCCGGCAUGGUCCCAGCCUCCUCGCUGGCGCCGGCUGGGCAAUAUUCCGAGGGGACCGGCCCCUCGGUAAUGGCGAAUGGGACCCA [C44U U60G],0.686
14,GGCCGGCAUGGUCCCAGCCUCCUCGCUGGCGCCGGCUGGGCAAUAUUCCGAGGAGACCGUCCCCUCGGUAAUGGCGAAUGGGACCCA [C44U G54A],0.872
15,GGCCGGCAUGGUCCCAGCCUCCUCGCUGGCGCCGGCUGGGCAACCUUCCGAGGGGUCCGUCCCCUCGGUAAUGGCGAAUGGGACCCA [A45C A56U],0.629
16,GGCCGGCAUGGUCCCAGCCUCCUCGCUGGCGCCGGCUGGGCAACCUUCCGAGGGGACCGUCCCCUCGGUAAUGGCGAAUGGGACCCA [A45C],0.702
17,GGCCGGCAUGGUCCCAGCCUCCUCGCUGGCGCCGGCUGGGCAACCUUCCGAGGGGACCGUCCCCUCGGUAAUGGUGAAUGGGACCCA [A45C C75U],0.201
18,GGCCGGCAUGGUCCCAGCCUCCUCGCUGGCGCCGGCUGGGCAACCUUCCGAGGGGACCGUCCCCUCGGUAAUGGAGAAUGGGACCCA [A45C C75A],0
19,GGCCGGCAUGGUCCCAGCCUCCUCGCUGGCGCCGGCUGGGCAACCUUCCGAGGGGACCGUCCCCUCGGUAAUGGGGAAUGGGACCCA [A45C C75G],0.237
20,GGCCGGCAUGGUCCCAGCCUCCUCGCUGGCGCCGGCUGGGCAAUAUUCCGAGGGGACCGUCCCCUCAGUAAUGGCGAAUGGGACCCA [C44U G67A],0.82
